Earlier results on one substance are cited in paper PMC3890242.

As a reminder, the pKa is the pH at which an ionisable group is half protonated.

The data set concerns the target Tyr57 (UniProt position 57, QIAAFYRQGLG). Briefly: UV-vis. To be noted: unliganded D40N pKSI.

As to “Ketosteroid isomerase (pKSI) D40N (Pseudomonas putida; D40N)”, the pKa is 6.3 ± 0.1.
